Experimental data from the supplement of paper PMC9112550, “Optimization of the antimicrobial peptide Bac7 by deep mutational scanning” (BMC Biology, 2022).

system: Escherichia coli TOP10; experiment: shrunken log2 fold change of peptide-encoding DNA abundance (4.5 h post-induction vs induction); higher = less antimicrobial activity (less host growth inhibition); conditions: time post-induction: 4.5 h; library: site-saturation at positions 5, 18, 19, 20
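Also: peptides expressed intracellularly from a pBAD plasmid library in pooled LB shake-flask culture, induced with 0.3% L-arabinose, DNA abundance read by NGS, three biological replicates, DESeq2 with apeglm shrinkage.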

Row | Sequence | shrunken log2 fold change
1 | RRIRDRPPRLPRPRPRPPNSPRP | -0.0992
2 | RRIRDRPPRLPRPRPRPPPFPRP | 0.321
3 | RRIRDRPPRLPRPRPRPPPKPRP | 1.09
4 | RRIRDRPPRLPRPRPRPPQDPRP | 0.811
5 | RRIRDRPPRLPRPRPRPPQYPRP | -0.0943
6 | RRIRDRPPRLPRPRPRPPRKPRP | 0.758
7 | RRIRDRPPRLPRPRPRPPSEPRP | 0.459
8 | RRIRDRPPRLPRPRPRPPSGPRP | 0.364
9 | RRIRDRPPRLPRPRPRPPSTPRP | -0.0415
10 | RRIRDRPPRLPRPRPRPPSYPRP | -0.222
11 | RRIRDRPPRLPRPRPRPPTIPRP | 0.0394
12 | RRIRDRPPRLPRPRPRPQAIPRP | 0.0512
13 | RRIRDRPPRLPRPRPRPQARPRP | 1.05
14 | RRIRDRPPRLPRPRPRPQCQPRP | -0.00822
15 | RRIRDRPPRLPRPRPRPQEHPRP | -0.0802
16 | RRIRDRPPRLPRPRPRPQFQPRP | -0.145
17 | RRIRDRPPRLPRPRPRPQGAPRP | 0.244
18 | RRIRDRPPRLPRPRPRPQKDPRP | -0.294
19 | RRIRDRPPRLPRPRPRPQKEPRP | -0.0595
20 | RRIRDRPPRLPRPRPRPQLGPRP | 0.0197
21 | RRIRDRPPRLPRPRPRPQLRPRP | -0.0942
22 | RRIRDRPPRLPRPRPRPQMDPRP | -0.0397
23 | RRIRDRPPRLPRPRPRPQNSPRP | -0.24
24 | RRIRDRPPRLPRPRPRPQPQPRP | 0.517
25 | RRIRDRPPRLPRPRPRPQPSPRP | 0.234

Row | Sequence | shrunken log2 fold change
26 | RRIRDRPPRLPRPRPRPQQVPRP | 0.0253
27 | RRIRDRPPRLPRPRPRPQQWPRP | 0.0413
28 | RRIRDRPPRLPRPRPRPQRKPRP | 0.0137
29 | RRIRDRPPRLPRPRPRPQSAPRP | 0.138
30 | RRIRDRPPRLPRPRPRPQWHPRP | -0.292
31 | RRIRDRPPRLPRPRPRPQYVPRP | -0.229
32 | RRIRDRPPRLPRPRPRPRACPRP | 0.389
33 | RRIRDRPPRLPRPRPRPRCCPRP | 0.18
34 | RRIRDRPPRLPRPRPRPRCTPRP | -0.054
35 | RRIRDRPPRLPRPRPRPRDAPRP | 0.59
36 | RRIRDRPPRLPRPRPRPRDTPRP | 0.575
37 | RRIRDRPPRLPRPRPRPRDVPRP | 0.128
38 | RRIRDRPPRLPRPRPRPREPPRP | 0.112
39 | RRIRDRPPRLPRPRPRPRFKPRP | -0.0405
40 | RRIRDRPPRLPRPRPRPRIFPRP | -0.0459
41 | RRIRDRPPRLPRPRPRPRIMPRP | 0.015
42 | RRIRDRPPRLPRPRPRPRKSPRP | -0.0168
43 | RRIRDRPPRLPRPRPRPRMGPRP | 0.161
44 | RRIRDRPPRLPRPRPRPRQWPRP | 0.36
45 | RRIRDRPPRLPRPRPRPRRVPRP | 0.427
46 | RRIRDRPPRLPRPRPRPRSFPRP | 0.429
47 | RRIRDRPPRLPRPRPRPRSWPRP | 0.131
48 | RRIRDRPPRLPRPRPRPRTMPRP | -0.0423
49 | RRIRDRPPRLPRPRPRPRTRPRP | 0.0925
50 | RRIRDRPPRLPRPRPRPRVHPRP | -0.0969

Row | Sequence | shrunken log2 fold change
51 | RRIRDRPPRLPRPRPRPRWDPRP | 0.196
52 | RRIRDRPPRLPRPRPRPRWIPRP | -0.376
53 | RRIRDRPPRLPRPRPRPRWQPRP | 0.0899
54 | RRIRDRPPRLPRPRPRPRYRPRP | -0.101
55 | RRIRDRPPRLPRPRPRPRYVPRP | -0.0272
56 | RRIRDRPPRLPRPRPRPSAAPRP | 1.02
57 | RRIRDRPPRLPRPRPRPSAVPRP | 0.291
58 | RRIRDRPPRLPRPRPRPSDNPRP | -0.0807
59 | RRIRDRPPRLPRPRPRPSESPRP | -0.000946
60 | RRIRDRPPRLPRPRPRPSGWPRP | 0.558
61 | RRIRDRPPRLPRPRPRPSHAPRP | 0.0738
62 | RRIRDRPPRLPRPRPRPSMQPRP | -0.157
63 | RRIRDRPPRLPRPRPRPSQFPRP | -0.181
64 | RRIRDRPPRLPRPRPRPSQVPRP | -0.426
65 | RRIRDRPPRLPRPRPRPSRDPRP | 0.00173
66 | RRIRDRPPRLPRPRPRPSRKPRP | -0.0764
67 | RRIRDRPPRLPRPRPRPSRRPRP | 0.146
68 | RRIRDRPPRLPRPRPRPSSNPRP | -0.148
69 | RRIRDRPPRLPRPRPRPSSTPRP | 0.00883
70 | RRIRDRPPRLPRPRPRPSSWPRP | -0.0298
71 | RRIRDRPPRLPRPRPRPSTGPRP | -0.313
72 | RRIRDRPPRLPRPRPRPSVAPRP | 0.233
73 | RRIRDRPPRLPRPRPRPSVWPRP | 0.404
74 | RRIRDRPPRLPRPRPRPSWFPRP | -0.192
75 | RRIRDRPPRLPRPRPRPSWKPRP | -0.015
